# In paper PMC8515915 (Genome Medicine, 2021):
# Biological target: T1, SARS-CoV-2 RBD wildtype, soluble fragment 319-591 with C-terminal 8 × His tag (SARS-CoV-2, UniProt P0DTC2)
# T1 construct: source: ExpiCHO-S, transient, purified (His Trap Excel)
# Experiment: BLI
# Settings: both partners purified
binder,measurement,value
"CB6 (antibody, V domains shown, source: ExpiCHO, heavy and light chain plasmids cotransfected, purified (Protein A)) VH: EVQLVESGGGLVQPGGSLRLSCAASGFTVSSNYMSWVRQAPGKGLEWVSVIYSGGSTFYADSVKGRFTISRDNSMNTLFLQMNSLRAEDTAVYYCARVLPMYGDYLDYWGQGTLVTVSS VL: not shown",Kd,10.7 nM
